The values below come from patent US20200239537.

The subject of data set [1] is N-MeLeu9-apelin-17 A2 (11).

A word on the Km: it is the concentration of substrate that gives half-maximal velocity.

recombinant human plasma kallikrein KLKB1 (rhKLKB1, Novoprotein), sequence (chain, as listed by the source): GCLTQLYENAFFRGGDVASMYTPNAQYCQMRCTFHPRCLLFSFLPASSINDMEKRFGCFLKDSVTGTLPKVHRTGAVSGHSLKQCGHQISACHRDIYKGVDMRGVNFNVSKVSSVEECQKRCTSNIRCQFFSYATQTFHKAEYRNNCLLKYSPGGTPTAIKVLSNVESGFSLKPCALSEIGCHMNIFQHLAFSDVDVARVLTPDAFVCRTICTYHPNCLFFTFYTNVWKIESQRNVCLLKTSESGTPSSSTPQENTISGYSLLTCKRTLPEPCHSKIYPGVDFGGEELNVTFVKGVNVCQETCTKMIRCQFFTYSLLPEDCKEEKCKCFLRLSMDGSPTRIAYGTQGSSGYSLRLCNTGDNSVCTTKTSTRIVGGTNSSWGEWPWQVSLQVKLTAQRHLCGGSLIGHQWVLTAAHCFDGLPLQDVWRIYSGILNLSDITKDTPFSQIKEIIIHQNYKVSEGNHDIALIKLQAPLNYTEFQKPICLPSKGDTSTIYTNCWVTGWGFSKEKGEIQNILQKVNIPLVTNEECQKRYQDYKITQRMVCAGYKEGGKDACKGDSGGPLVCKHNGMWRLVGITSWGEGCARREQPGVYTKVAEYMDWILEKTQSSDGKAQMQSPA

Consider “recombinant human plasma kallikrein KLKB1 (rhKLKB1, Novoprotein)”, for which the results for the Km (in data set [1]; with apelin-17 (2); in the data set with apelin-17 A2 (5)) were 245 µM, 97 µM and 30 µM, respectively. Besides, the kcat (1/S) in data set [1] was 16.5 1/S; in the data set on apelin-17 (2), 13.7 1/S; in the data set with apelin-17 A2 (5) it was 1.4 1/S. The values for the kcat/Km (1/MS) (in data set [1]; with apelin-17 (2); in the data set on apelin-17 A2 (5)) were 67000 1/MS, 140000 1/MS and 47000 1/MS, respectively.
